Laboratory results published in patent US20250213715A1, “ANTI-CSPG4 BINDING AGENTS, CONJUGATES THEREOF AND METHODS OF USING THE SAME” (Ardeagen Corporation, priority 2020, published 2025).

Experiments:
[1] = molecular target: T1, CSPG4 (chondroitin sulfate proteoglycan 4) on human tumor cell lines (human, UniProt Q6UVK1 30-2322); test: flow cytometry on A375 melanoma cells, 6-point dose curve, anti-hIgG-AF488
T1 construct: Endogenous CSPG4 on human cell lines (A2058, Malme-3M, A375, SW1353, NCI-H2052); also called HMW MAA; MCSP
T1 sequence (Q6UVK1 30-2322 limits assumed): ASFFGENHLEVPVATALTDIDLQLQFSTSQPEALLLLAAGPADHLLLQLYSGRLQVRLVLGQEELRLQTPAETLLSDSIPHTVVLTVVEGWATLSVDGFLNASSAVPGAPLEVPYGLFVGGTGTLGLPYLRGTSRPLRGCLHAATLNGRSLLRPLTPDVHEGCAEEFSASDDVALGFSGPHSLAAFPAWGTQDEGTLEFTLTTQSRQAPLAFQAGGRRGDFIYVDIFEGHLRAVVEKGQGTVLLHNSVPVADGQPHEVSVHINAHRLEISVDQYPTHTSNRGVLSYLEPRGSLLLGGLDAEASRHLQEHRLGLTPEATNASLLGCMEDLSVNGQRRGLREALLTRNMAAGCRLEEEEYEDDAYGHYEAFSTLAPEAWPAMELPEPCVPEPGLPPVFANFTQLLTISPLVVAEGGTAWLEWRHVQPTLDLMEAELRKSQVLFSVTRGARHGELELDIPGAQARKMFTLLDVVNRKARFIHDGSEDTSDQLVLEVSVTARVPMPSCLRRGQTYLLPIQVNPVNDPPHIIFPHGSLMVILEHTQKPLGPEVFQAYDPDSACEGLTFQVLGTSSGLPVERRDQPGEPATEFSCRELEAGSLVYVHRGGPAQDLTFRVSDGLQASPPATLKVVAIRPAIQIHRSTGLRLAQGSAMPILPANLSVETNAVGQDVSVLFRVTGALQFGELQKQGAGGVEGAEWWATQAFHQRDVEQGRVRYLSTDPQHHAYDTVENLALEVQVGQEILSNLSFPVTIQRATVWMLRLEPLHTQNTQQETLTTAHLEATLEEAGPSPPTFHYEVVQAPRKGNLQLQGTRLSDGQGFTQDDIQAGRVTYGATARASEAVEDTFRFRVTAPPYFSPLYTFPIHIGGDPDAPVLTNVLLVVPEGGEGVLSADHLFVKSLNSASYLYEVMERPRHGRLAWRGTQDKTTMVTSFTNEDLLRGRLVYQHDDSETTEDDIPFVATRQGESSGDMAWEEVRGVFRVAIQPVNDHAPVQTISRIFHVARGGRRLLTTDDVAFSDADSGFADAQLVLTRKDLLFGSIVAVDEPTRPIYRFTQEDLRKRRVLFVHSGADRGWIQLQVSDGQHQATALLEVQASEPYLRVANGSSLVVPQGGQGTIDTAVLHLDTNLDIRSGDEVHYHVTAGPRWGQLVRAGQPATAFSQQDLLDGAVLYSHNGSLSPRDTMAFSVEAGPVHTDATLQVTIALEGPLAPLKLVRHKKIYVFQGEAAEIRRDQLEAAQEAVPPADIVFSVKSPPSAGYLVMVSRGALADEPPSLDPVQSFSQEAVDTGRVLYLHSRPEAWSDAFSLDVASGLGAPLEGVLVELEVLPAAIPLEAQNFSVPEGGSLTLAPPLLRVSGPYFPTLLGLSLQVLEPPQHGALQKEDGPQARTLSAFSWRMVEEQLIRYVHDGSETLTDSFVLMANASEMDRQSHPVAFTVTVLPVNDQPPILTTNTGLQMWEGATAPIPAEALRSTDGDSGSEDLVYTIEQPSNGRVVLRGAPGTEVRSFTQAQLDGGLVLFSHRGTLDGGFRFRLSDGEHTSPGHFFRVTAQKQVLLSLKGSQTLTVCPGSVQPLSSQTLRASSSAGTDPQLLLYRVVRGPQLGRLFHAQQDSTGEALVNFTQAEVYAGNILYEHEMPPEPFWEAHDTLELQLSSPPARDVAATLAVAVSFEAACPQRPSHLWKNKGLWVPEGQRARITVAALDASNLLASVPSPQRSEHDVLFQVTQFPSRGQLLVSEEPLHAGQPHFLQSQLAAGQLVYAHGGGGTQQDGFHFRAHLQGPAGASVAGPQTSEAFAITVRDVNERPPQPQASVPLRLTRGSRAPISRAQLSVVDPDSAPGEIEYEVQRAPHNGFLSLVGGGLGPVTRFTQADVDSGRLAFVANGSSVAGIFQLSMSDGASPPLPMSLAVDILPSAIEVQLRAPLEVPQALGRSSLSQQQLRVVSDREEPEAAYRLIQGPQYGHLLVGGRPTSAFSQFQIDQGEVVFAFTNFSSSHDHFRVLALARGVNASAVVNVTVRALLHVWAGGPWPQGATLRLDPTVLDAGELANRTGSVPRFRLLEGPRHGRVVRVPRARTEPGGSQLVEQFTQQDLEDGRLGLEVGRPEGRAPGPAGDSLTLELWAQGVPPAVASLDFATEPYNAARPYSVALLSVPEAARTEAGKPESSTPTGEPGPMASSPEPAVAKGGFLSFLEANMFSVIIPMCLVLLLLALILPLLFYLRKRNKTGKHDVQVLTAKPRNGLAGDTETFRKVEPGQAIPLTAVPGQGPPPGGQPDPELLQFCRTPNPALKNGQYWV
Procedure: (§1) Flow Cytometry—Cells were rinsed with PBS (phosphate buffered saline, pH 7.4) and harvested with Versene (Thermo Fisher) prior to incubation with FACs buffer (PBS+1% fetal bovine serum (FBS; source BioSun) containing test antibody or ADCs for 1 h at 4° C. Cells were rinsed and washed with FACs buffer (PBS+1% FBS) and detection was performed with anti-bigG-AF488. Cells were analyzed on a FACs Canto II (BD Biosciences). Quantitative FACs (qFACs) was performed to measure the number of antigen binding sites with the DAKO QifiKit (DAKO, Carpinteria, CA), according to the manufacturer's directions.
(§2) The CSPG4+A2058 and A375 melanoma and the lung NCI-H2052 and NCI-H1975 cell lines were incubated with increasing concentrations of the antibody (6-point dose curve) for 1 hr at 4° C. Detection was done with an anti-hIgG-AF488 secondary antibody.
(§3) The data were graphed and estimated binding constants (EC50 in table) were determined with Prism (GraphPad Software, San Diego, CA).

[2] = molecular target: T1, CSPG4 (chondroitin sulfate proteoglycan …); test: flow cytometry on A2058 melanoma cells, 8-point dose curve, anti-hIgG-AF488
Procedure: as §1
(§4) FACs binding of ARD107 antibody and corresponding conjugates to CSPG4-positive cell lines was conducted. The melanoma A2058 and Malme-3M, the SW1353 chondrosarcoma, and the NCI-H1975 lung cell lines were incubated with increasing concentrations (8-point dose curve) of the antibody, conjugates (ARD107-vcMMAE or ARD107-SN38 (ARD107-CL2A-SN-38)), or isotype control (hIgG1) for 1 hr at 4° C. Detection was done with an anti-hIgG-AF488 secondary antibody.

[3] = molecular target: T1, CSPG4 (chondroitin sulfate proteoglycan …); test: flow cytometry on A2058 melanoma cells, 6-point dose curve, anti-hIgG-AF488
Procedure: as §1, §2, §3

[4] = molecular target: T1, CSPG4 (chondroitin sulfate proteoglycan …); test: flow cytometry on NCI-H2052 lung cells, 6-point dose curve, anti-hIgG-AF488
Procedure: as §1, §2, §3

[5] = molecular target: T1, CSPG4 (chondroitin sulfate proteoglycan …); test: flow cytometry on Malme-3M melanoma cells, 8-point dose curve, anti-hIgG-AF488
Procedure: as §1, §4

[6] = molecular target: T1, CSPG4 (chondroitin sulfate proteoglycan …); test: flow cytometry on SW1353 chondrosarcoma cells, 8-point dose curve, anti-hIgG-AF488
Procedure: as §1, §4

EC50 [1]: 0.19 nM
EC50 [2]: 0.48 nM
EC50 [3]: 0.24 nM
EC50 [4]: 0.3 nM
EC50 [5]: 0.59 nM
EC50 [6]: 0.21 nM
B1: ARD107 antibody (antibody, human IgG1, kappa, V domains shown)
VH: EVQLQESGPGLVKPSQSLSLTCSVTGYSITSGYYWNWIRQFPGNKLEWMGYITYDGSNNYNPSLKNRISITRDTSKNQFFLKLNSVTTEDTATYYCADFDYWGQGTTLTVSS
VL: DIVLTQSPSSLSASLGDRVTISCSASQGIRNYLNWYQQRPDGTVKLLIYYTSSLHSGVPSRFSGSGSGTDYSLTISNLEPEDIATYYCQQYSKLPWTFGGGTKLEIKR
notes: also called unconjugated ARD107 monoclonal antibody
